{"source": "patent US20240342244A1", "about": "“Isthmin Protein Therapeutics for the Treatment of Non-Alcoholic Fatty Liver Disease” (The Board of Trustees of the Leland Stanford Junior …, priority 2021, published 2024)", "molecules": {"B1": {"name": "ISM1: recombinant mouse ISM1 protein with a C-terminal myc-his tag generated in mammalian HEK 293 Expi cells (protein, UniProt A2ATD1 30-454, looked up)", "Isthmin-1": "SDRQDAAAGNNNLNLESDSTSETSFPLSKEAPEEHQVVHQPFPRQRFPPETGHPSLQRDGPRSFLLDLPNFPDLSKADINGQNPNIQVTIEVVDGPDSEAEKDQHPENKPSWSLPAPDWRAWWQRSLSLARTNSGDQDDKYDSTSDDSNFLSVPRGWDRPAPGHRTFETKEQPEYDSTDGEGDWSLWSVCSVTCGNGNQKRTRSCGYACIATESRTCDRPNCPGIEDTFRTAATEVSLLAGSEEFNATKLFEVDMDSCERWMSCKSEFLKKYMHKVINDLPSCPCSYPTEVAYSTADIFDRIKRKDFRWKDASGPKEKLEIYKPTARYCIRSMLSLESTTLAAQHCCYGDNMQLITRGKGAGTPNLISTEFSAELHYKVDVLPWIICKGDWSRYNEARPPNNGQKCTESPSDEDYIKQFQEAREY", "modifications": "C-terminal myc-His tag", "notes": "recombinant mouse ISM1 protein with a C-terminal myc-his tag generated in mammalian HEK 293 Expi cells"}}, "key": {"SREBP1c, FAS, ACC": {"system": "SREBP1c, FAS, ACC", "test": "Lipogenic protein and gene expression in AML12 hepatocytes", "format": "cell-based, mouse", "experimental": "(§1) Gene expression analysis. Total RNA from cultured cells or tissues was isolated using TRIzol (Thermo Fischer Scientific) and Rneasy mini kits (QIAGEN). RNA was reverse transcribed using the ABI high capacity cDNA synthesis kit. For qRT-PCR analysis, cDNA, primers and SYBR-green fluorescent dye (ABI) were used. Relative mRNA expression was determined by normalization with Cyclophilin levels using the ΔΔCt method.\n(§2) Western blots and molecular analyses. For western blotting, homogenized tissues or whole-cell lysates, samples were lysed in RIPA buffer containing protease inhibitor cocktail (Roche) and phosphatase inhibitor cocktail (Roche). Cell lysates were centrifuged at 14,000×g for 15 min and supernatants were prepared in 4×LDS Sample Buffer (Invitrogen) and separated by SDS-PAGE and transferred to Immobilon 0.45 μm membranes (Millipore). For Western blotting of plasma samples, 1 μl of plasma was prepared in 2× sample buffer (Invitrogen) with reducing agent, boiled, and analyzed using Western blot against indicated antibody. Protein kinase array (R&D systems ARY003B) was performed according to the manufacturers' description. All antibodies used in this paper are described in STAR methods."}, "AML12 hepatocytes": {"system": "AML12 hepatocytes", "test": "Protein synthesis assay (3H-leucine incorporation into proteins) in AML12 hepatocytes", "format": "cell-based, mouse", "settings": "24 h", "experimental": "Protein synthesis Assay. AML12 hepatocytes were washed twice with warm PBS and starved in serum-free media overnight. Indicated concentrations of insulin with or without ISM1 and 0.25 uCi of [3H]-Leucine (#NET460250UC, PerkinElmer) were added at the same time. After a 24 h incubation, cells were washed three times with ice cold PBS and lysed in RIPA buffer containing protease inhibitor cocktail (Roche). After 15 min centrifugation at 14000×g, supernatants were transferred to new tubes. Trichloroacetic acid was added to the protein extracts at a final concentration of 10% and incubated on ice for 1 h. After a 15 min centrifugation at 14000×g, pellets were washed with cold acetone, diluted in 10M NaOH and transferred to scintillation vials. The radioactivity was measured by liquid scintillation counting."}, "srebp1c": {"system": "srebp1c", "test": "Lipogenic gene and SREBP-1c protein expression in primary adipocytes", "format": "cell-based, mouse", "experimental": "as §1, §2"}, "pAKT^S473": {"system": "pAKT^S473", "test": "pAKT S473 western blot in C2C12 skeletal muscle cells", "format": "cell-based", "settings": "100 nM, 5 min", "experimental": "as §2"}, "pTyr": {"system": "pTyr", "test": "Western blot of pTyr levels", "format": "cell-based", "settings": "100 nM; 2 minutes", "experimental": "as §2"}, "GLUT4": {"system": "GLUT4", "test": "GLUT4 translocation to the plasma membrane in primary adipocytes (immunostaining, fractionation)", "format": "cell-based, mouse", "settings": "100 nM", "experimental": "Biochemical analyses. Plasma insulin levels were measured using the Ultra-Sensitive Mouse Insulin ELISA kit (Crystal Chem Inc #90080). Plasma triglycerides were measured with Infinity triglyceride measurement kit (Thermo #TR22421) and tissue triglycerides were measured with a Triglyceride Colorimetric Assay Kit (Cayman #10010303). Lipolysis was measured in day 5 differentiated adipocytes after 4 hours of protein treatment using a glycerol release assay according to the protocol provided by the manufacturer (Abcam #ab133130). Plasma membrane protein extractions were performed according to the manufacturer's protocol (Abcam #ab65400).\nImmunocytochemistry. Primary mouse preadipocytes were seeded onto collagen-coated 22 mm×22 mm coverslips and differentiated using the method above. On day 8, differentiated adipocytes were washed with PBS and starved in 0.5% BSA in KRH buffer (50 mM HEPES, 136 mM NaCl, 1.25 mM MgSO4, 1.25 mM CaCl2, 4.7 mM KCl, pH 7.4) for 3.5 h. Cells were treated with insulin or ISM1 for 30 min, followed by three washes with cold PBS. Cells were fixed with 4% PFA in PBS for 15 min at room temperature. After blocking with 2% BSA, 5% goat serum, 0.2% Triton-X in PBS for 1 hr, cells were incubated with diluted primary antibody at 4° C. overnight. The next day, cells were washed and incubated with secondary antibody on ice for 1 hr. Cells were imaged using confocal microscope (Leica TCS SP8). Hoechst (#33342, thermo fisher) was used as counterstain."}, "[1]": {"system": "pAKT^T308, S6^S235/S236, PRAS40^Thr246, ERK1/2, PKA, PDK1, GSK3β", "test": "Time-course western blot of intracellular signaling pathways in 3T3-F442A cells", "format": "cell-based", "experimental": "as §2"}, "pS6^S235/S236": {"system": "pS6^S235/S236", "test": "Acute and long-term signaling in AML12 hepatocytes (western blot)", "format": "cell-based, mouse", "experimental": "as §2"}, "[2]": {"system": "differentiated 3T3-L1 adipocytes", "test": "2-deoxy-3H-glucose uptake in differentiated 3T3-L1 adipocytes", "format": "cell-based", "settings": "1 h", "experimental": "Glucose uptake. Glucose uptake was performed as previously described (You et al., 2017). Briefly, 2-Deoxy-d-[2,6-3H]-glucose was purchased from PerkinElmer NEN radiochemicals. Fully differentiated adipocytes were washed with KRH buffer and starved in 0.5% BSA in KRH buffer for 4 h. Indicated concentrations of insulin or ISM1 were added at indicated time points. Cells were treated with a mixture of 500 μM 2-deoxy-D-glucose and 1.71 μCimL^−1 2-Deoxy-D-[1,2-3H (N)]-glucose for another 10 min followed by three washes using ice cold KRH buffer containing 200 mM glucose. The passive glucose uptake in the presence of 50 uM CytoB was less than 12% of the total glucose uptake. Cells were solubilized in 1% SDS and radioactivity was measured by liquid scintillation counting."}}, "data": [{"molecule": "B1", "values": [{"measurement": "SREBP1c cleavage, FAS and ACC protein expression", "setting": "SREBP1c, FAS, ACC; 50 nM insulin, with or without ISM1, 24 h", "result": "counteracts the insulin-induced increase in SREBP1c cleavage to the mature form"}, {"measurement": "ChREBPβ and PGC1β gene expression", "setting": "SREBP1c, FAS, ACC; AML12 hepatocytes", "result": "reduced"}, {"measurement": "fas, acc and scd1 gene expression", "setting": "SREBP1c, FAS, ACC; in the presence of insulin, 6 h", "result": "significantly reduced"}, {"measurement": "lipid synthesis versus protein synthesis, side-by-side", "setting": "AML12 hepatocytes; 100 nM ISM1 and 50 nM insulin vs 50 nM insulin alone", "result": "suppresses lipid synthesis in favor of protein synthesis"}, {"measurement": "induction of protein synthesis (H3-leucine incorporation)", "setting": "AML12 hepatocytes; combined chronic ISM1 and insulin (50 nM) treatment", "result": 2.9, "unit": "fold"}, {"measurement": "cleaved SREBP-1c protein levels", "setting": "srebp1c; insulin-stimulated conditions", "result": "potently reduces the cleaved SREBP-1c protein levels"}, {"measurement": "srebp1c, acc, fas and ChREBPβ gene expression", "setting": "srebp1c; insulin-stimulated conditions", "result": "suppressing srebp1c and the lipogenesis target genes acc, fas, and ChREBPβ"}, {"measurement": "srebp1c expression under basal conditions", "setting": "srebp1c; primary adipocytes", "result": "no induction"}, {"measurement": "pAKT^S473 induction", "setting": "pAKT^S473", "result": "induced pAKT^S473"}, {"measurement": "tyrosine phosphorylation of proteins", "setting": "pTyr", "result": "induces phosphorylation of tyrosine residues on proteins >100 kDa in size"}, {"measurement": "GLUT4 in plasma membrane fraction (biochemical fractionation)", "setting": "GLUT4; 4 h", "result": "translocation of GLUT4 to the plasma membrane"}, {"measurement": "GLUT4 at cell surface (immunostaining, confocal microscopy)", "setting": "GLUT4; compared with control cells", "result": "higher levels of GLUT4 at cell surface"}, {"measurement": "activation of S6^S235/S236 and PRAS40^Thr246", "setting": "[1]; 100 nM, time course", "result": "time-dependent activation"}, {"measurement": "pAKT^T308 phosphorylation", "setting": "[1]; 100 nM, time course", "result": "phosphorylation at pAKT^T308 at all time points"}, {"measurement": "ERK1/2 phosphorylation", "setting": "[1]; 100 nM, vs 20 ng/ml PDGF-ββ", "result": "does not evoke as robust ERK1/2 phosphorylation as the known mitogen PDGF-ββ"}, {"measurement": "ERK1/2 phosphorylation", "setting": "[1]; 200 nM ISM1 vs 100 nM insulin", "result": "prolonged and more potent phosphorylation of ERK1/2 than insulin"}, {"measurement": "activity on other pathways such as PKA, PDK1 or GSK3P", "setting": "[1]; even at 200 nM doses", "result": "does not display any activity or displays only weak activity"}, {"measurement": "pS6^S235/S236 after long-term treatment", "setting": "pS6^S235/S236; 24 h treatment", "result": "induces hyperactivation of pS6^S235/S236"}, {"measurement": "acute signaling added to insulin", "setting": "pS6^S235/S236; insulin 1 nM up to 100 nM with 25 nM or 50 nM ISM1, 5 min", "result": "do not result in any additional signaling changes"}, {"measurement": "induction of glucose uptake", "setting": "[2]", "result": "does not induce glucose uptake"}]}]}
